Laboratory results: patent US20170240595 (published 2017)
Where two headings read alike, the source gives them in different places. Each block holds one binder with its values, some of them ahead of it. Bridges are numbered along the chain shown (N, C = ends). Where no end group is shown, it is not given here. [ ]: non-standard residue; d: D form. Bip = N[C@@H](Cc1ccc(-c2ccccc2)cc1)C(=O)O; 2Nal = N[C@@H](Cc1ccc2ccccc2c1)C(=O)O; d2Nal = N[C@H](Cc1ccc2ccccc2c1)C(=O)O; hArg = N=C(N)NCCCC[C@H](N)C(=O)O; 3Pal = N[C@@H](Cc1cccnc1)C(=O)O; Pen = CC(C)(S)[C@H](N)C(=O)O; Nle = CCCC[C@H](N)C(=O)O; Bal = not defined here; GABA = NCCCC(=O)O; βAla = NCCC(=O)O

Legend:
Experiment in all cases: competition
hMC3-R [1] = molecular target: T1, hMC3-R (human, UniProt P41968)
hMC1-R [2] = molecular target: T2, hMC1-R (human, UniProt Q01726)
hMC5-R [3] = molecular target: T3, hMC5-R (human, UniProt P33032)
hMC4-R [4] = molecular target: T4, hMC4-R (human, UniProt P32245)
hMC4-R [5] = molecular target: T4, hMC4-R; remark: listed apart in the source
hMC1-R [6] = molecular target: T2, hMC1-R; remark: listed apart in the source
hMC3-R [7] = molecular target: T1, hMC3-R; remark: listed apart in the source
hMC5-R [8] = molecular target: T3, hMC5-R; remark: listed apart in the source

T2 sequence (Q01726 whole entry): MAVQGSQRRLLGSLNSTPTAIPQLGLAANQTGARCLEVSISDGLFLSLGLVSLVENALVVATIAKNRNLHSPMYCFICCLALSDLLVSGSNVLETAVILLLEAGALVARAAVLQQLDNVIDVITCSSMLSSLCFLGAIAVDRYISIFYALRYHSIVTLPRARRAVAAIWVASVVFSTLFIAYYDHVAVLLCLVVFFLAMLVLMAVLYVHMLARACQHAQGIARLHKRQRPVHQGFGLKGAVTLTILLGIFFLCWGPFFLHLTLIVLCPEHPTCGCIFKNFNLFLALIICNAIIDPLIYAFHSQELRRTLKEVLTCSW
T3 sequence (P33032 whole entry): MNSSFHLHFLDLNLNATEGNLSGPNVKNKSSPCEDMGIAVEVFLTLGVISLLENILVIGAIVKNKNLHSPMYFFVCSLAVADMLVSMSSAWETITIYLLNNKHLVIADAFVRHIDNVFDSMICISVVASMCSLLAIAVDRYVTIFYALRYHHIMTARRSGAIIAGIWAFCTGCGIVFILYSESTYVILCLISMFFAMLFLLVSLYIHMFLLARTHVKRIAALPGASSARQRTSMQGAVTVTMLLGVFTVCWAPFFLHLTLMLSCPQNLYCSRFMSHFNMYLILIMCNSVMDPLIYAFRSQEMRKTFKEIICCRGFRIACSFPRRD
T1 sequence (P41968 whole entry): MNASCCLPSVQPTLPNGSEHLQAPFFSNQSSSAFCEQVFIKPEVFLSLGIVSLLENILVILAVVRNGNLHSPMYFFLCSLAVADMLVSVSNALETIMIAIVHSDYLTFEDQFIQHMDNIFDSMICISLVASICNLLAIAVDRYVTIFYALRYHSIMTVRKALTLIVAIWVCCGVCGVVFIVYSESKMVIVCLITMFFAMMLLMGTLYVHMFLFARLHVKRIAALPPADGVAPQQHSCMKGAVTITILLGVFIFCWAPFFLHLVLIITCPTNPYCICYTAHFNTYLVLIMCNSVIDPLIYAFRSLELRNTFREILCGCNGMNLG
T4 sequence (P32245 whole entry): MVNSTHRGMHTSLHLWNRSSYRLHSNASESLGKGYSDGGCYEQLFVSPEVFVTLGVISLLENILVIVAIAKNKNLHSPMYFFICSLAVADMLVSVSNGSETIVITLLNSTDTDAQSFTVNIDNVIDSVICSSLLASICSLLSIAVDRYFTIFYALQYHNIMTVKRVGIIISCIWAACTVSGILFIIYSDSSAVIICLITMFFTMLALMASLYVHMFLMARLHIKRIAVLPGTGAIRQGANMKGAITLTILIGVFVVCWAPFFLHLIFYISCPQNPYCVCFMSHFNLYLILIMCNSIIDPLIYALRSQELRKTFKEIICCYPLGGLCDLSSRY

- Ki (hMC3-R [1]): 98.9 nM
- Ki (hMC1-R [2]): 0.659 nM
- Ki (hMC5-R [3]): 4.19 nM
- Ki (hMC4-R [4]): 2.55 nM
B1: Ac-Nle-c(Asp-D-Ala-His-D-Phe-Arg-Trp-Lys)-NH2 (peptide)
chain: Ac-[Nle]D[dA]H[dF]RWK-NH2
modifications: lactam 2-8
SMILES: CCCC[C@H](NC(C)=O)C(=O)N[C@H]1CC(=O)NCCCC[C@@H](C(N)=O)NC(=O)[C@H](Cc2c[nH]c3ccccc23)NC(=O)[C@H](CCCNC(=N)N)NC(=O)[C@@H](Cc2ccccc2)NC(=O)[C@H](Cc2c[nH]cn2)NC(=O)[C@@H](C)NC1=O

- Ki (hMC4-R [5]): 11 nM
- Ki (hMC1-R [6]): 3.93 nM
- Ki (hMC3-R [7]): 172 nM
- Ki (hMC5-R [8]): 538 nM
B2: Ac-D-Arg-c(Cys-His-D-Phe-Arg-Trp-Gaba-Pen)-NH2 (peptide)
chain: Ac-[dR]CH[dF]RW[GABA][Pen]-NH2
modifications: disulfide 2-8
SMILES: CC(=O)N[C@H](CCCNC(=N)N)C(=O)N[C@H]1CSSC(C)(C)[C@@H](C(N)=O)NC(=O)CCCNC(=O)[C@H](Cc2c[nH]c3ccccc23)NC(=O)[C@H](CCCNC(=N)N)NC(=O)[C@@H](Cc2ccccc2)NC(=O)[C@H](Cc2c[nH]cn2)NC1=O

- Ki (hMC3-R [1]): 4560 nM
- Ki (hMC1-R [2]): 132 nM
- Ki (hMC5-R [3]): 8810 nM
Binder: Ac-C[dA]H[dF]R[2Nal]AC-NH2 (disulfide 1-8 (inferred)) [Ac-c(Cys-D-Ala-His-D-Phe-Arg-2-Nal-Ala-Cys)-NH2]

- Ki (hMC3-R [1]): 3370 nM
- Ki (hMC1-R [2]): 5.8 nM
- Ki (hMC5-R [3]): 1130 nM
- Ki (hMC4-R [4]): 583 nM
Binder: [dF]CH[dF]R[Bip][βAla][dC]T-NH2 (disulfide 2-8 (inferred)) [D-Phe-c(Cys-His-D-Phe-Arg-Bip-β-Ala-D-Cys)-Thr-NH2]

- Ki (hMC4-R [5]): 4.57 nM
- Ki (hMC1-R [6]): 1.81 nM
- Ki (hMC3-R [7]): 20.5 nM
- Ki (hMC5-R [8]): 502 nM
B3: Ac-Arg-c(Cys-His-D-Phe-Arg-Trp-Gaba-Pen)-NH2 (peptide)
chain: Ac-RCH[dF]RW[GABA][Pen]-NH2
modifications: disulfide 2-8
SMILES: CC(=O)N[C@@H](CCCNC(=N)N)C(=O)N[C@H]1CSSC(C)(C)[C@@H](C(N)=O)NC(=O)CCCNC(=O)[C@H](Cc2c[nH]c3ccccc23)NC(=O)[C@H](CCCNC(=N)N)NC(=O)[C@@H](Cc2ccccc2)NC(=O)[C@H](Cc2c[nH]cn2)NC1=O

- Ki (hMC1-R [2]): 1.17 nM
Binder: Ac-[Nle]DH[d2Nal]RWAK-NH2 (lactam 2-8) [Ac-Nle-c(Asp-His-D-2-Nal-Arg-Trp-Ala-Lys)-NH2]

- Ki (hMC3-R [1]): 151 nM
- Ki (hMC1-R [2]): 21.1 nM
- Ki (hMC5-R [3]): 92.6 nM
Binder: Ac-[Nle]C[3Pal][dF]RW[GABA]C-NH2 (disulfide 2-8) [Ac-Nle-c(Cys-3-Pal-D-Phe-Arg-Trp-Gaba-Cys)-NH2]

- Ki (hMC3-R [1]): 149 nM
- Ki (hMC5-R [3]): 339 nM
- Ki (hMC4-R [4]): 3.01 nM
B4: Ac-Nle-c(Cys-D-Ala-His-D-Phe-Arg-Trp-Gly-Cys)-NH2 (peptide)
chain: Ac-[Nle]C[dA]H[dF]RWGC-NH2
modifications: disulfide 2-9
SMILES: CCCC[C@H](NC(C)=O)C(=O)N[C@H]1CSSC[C@@H](C(N)=O)NC(=O)CNC(=O)[C@H](Cc2c[nH]c3ccccc23)NC(=O)[C@H](CCCNC(=N)N)NC(=O)[C@@H](Cc2ccccc2)NC(=O)[C@H](Cc2c[nH]cn2)NC(=O)[C@@H](C)NC1=O

- Ki (hMC4-R [4]): 14.7 nM
Binder: [dF]CH[d(Et)Tyr][hArg]W[βAla][dC]T-NH2 (disulfide 2-8 (inferred)) [D-Phe-c(Cys-His-D-(Et)Tyr-hArg-Trp-β-Ala-D-Cys)-Thr-NH2]

- Ki (hMC1-R [2]): 262 nM
- Ki (hMC5-R [3]): 1460 nM
Binder: CEHXRXAC (cyclic, D-residues) [Ac-c(Cys-Glu-His-D-Phe-Arg-2-Nal-Ala-Cys)-NH2]

- Ki (hMC1-R [2]): 4.89 nM
- Ki (hMC5-R [3]): 11.1 nM
- Ki (hMC4-R [4]): 21.3 nM
Binder: Ac-[Nle]D[dA]H[dF]R[Bal]AK-NH2 (lactam 2-9; reading uncertain) [Ac-Nle-c(Asp-D-Ala-His-D-Phe-Arg-Bal-Ala-Lys)-NH2]

- Ki (hMC3-R [1]): 445 nM
- Ki (hMC1-R [2]): 4.12 nM
- Ki (hMC5-R [3]): 4300 nM
- Ki (hMC4-R [4]): 50.6 nM
Binder: Ac-[Nle]D[dA]H[dF]R[Bal]K-NH2 (lactam 2-8; reading uncertain) [Ac-Nle-c(Asp-D-Ala-His-D-Phe-Arg-Bal-Lys)-NH2]
